From paper PMC11077774, “Molecular mechanism for recognition of the cargo adapter Rab6^GTP by the dynein adapter BicD2” (Life Science Alliance, 2024)

Key:
Assay in all cases: pull-down; GST-tagged Rab6^GTP (WT = Q72L, or mutant) held on glutathione Sepharose columns, 1 mM GTP and 2 mM MgCl2 added for 30 min; purified BicD2-CTD added and incubated 30 min; washed, eluted with glutathione; SDS-PAGE (16%), Coomassie, band intensities quantified with ImageJ, ratio of bound BicD2-CTD/Rab6^GTP normalised to WT = 1; three experiments
Details in all cases: both partners purified
[1] = target: T1, GST-tagged Rab6^GTP (Rab6a/Q72L) Q65A mutant (human, UniProt P20340 1-208, Q72L | Q65A)
T1 construct: Rab6a, human, full length, Q72L background with Q65A; Loaded with 1 mM GTP and 2 mM MgCl2 on the column; source: E. coli BL20(DE3)-RIL, purified by glutathione Sepharose, washed but not eluted; not shown: GST, N-terminal, kept
T1 sequence (P20340 whole entry Q65A/Q72L): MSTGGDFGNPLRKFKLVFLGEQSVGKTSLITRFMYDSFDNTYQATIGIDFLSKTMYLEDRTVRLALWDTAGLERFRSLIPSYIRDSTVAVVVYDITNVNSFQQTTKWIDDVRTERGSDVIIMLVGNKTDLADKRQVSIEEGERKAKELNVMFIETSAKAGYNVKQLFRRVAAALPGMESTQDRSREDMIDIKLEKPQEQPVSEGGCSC

[2] = target: T2, full-length GTP-bound Rab6a/Q72L with N-terminal GST tag (human, UniProt P20340 1-208, Q72L)
T2 construct: pGEX6P1 vector, PreScission site after GST; Construct described in Gibson et al, 2023; also called Rab6^GTP WT; Rab6^GTP; source: E. coli BL20(DE3)-RIL, purified by glutathione Sepharose, washed but not eluted; not shown: GST, N-terminal, kept
T2 sequence (P20340 whole entry Q72L): as the sequence (P20340 whole entry Q65A/Q72L) above, with A65Q counted along it

[3] = target: T3, GST-tagged Rab6^GTP (Rab6a/Q72L) S52A mutant (human, UniProt P20340 1-208, Q72L | S52A)
T3 construct: Rab6a, human, full length, Q72L background with S52A; Loaded with 1 mM GTP and 2 mM MgCl2 on the column; also called phosphonegative mutation S52A; source: E. coli BL20(DE3)-RIL, purified by glutathione Sepharose, washed but not eluted; not shown: GST, N-terminal, kept
T3 sequence (P20340 whole entry S52A/Q72L): as the sequence (P20340 whole entry Q65A/Q72L) above, with S52A, A65Q counted along it

[4] = target: T4, GST-tagged Rab6^GTP (Rab6a/Q72L) K53A mutant (human, UniProt P20340 1-208, Q72L | K53A)
T4 construct: Rab6a, human, full length, Q72L background with K53A; Loaded with 1 mM GTP and 2 mM MgCl2 on the column; source: E. coli BL20(DE3)-RIL, purified by glutathione Sepharose, washed but not eluted; not shown: GST, N-terminal, kept
T4 sequence (P20340 whole entry K53A/Q72L): as the sequence (P20340 whole entry Q65A/Q72L) above, with K53A, A65Q counted along it

- binding result [1]: binds
- binding result [2]: binds
- binding result [3]: binds
- binding result [4]: binds
B1: BicD2-CTD (C-terminal cargo-binding domain of human Bicaudal D2, residues 715-804) (domain or fragment, UniProt Q8TD16 715-804, looked up)
chain: YENEKAMVTETMMKLRNELKALKEDAATFSSLRAMFATRCDEYITQLDEMQRQLAAAEDEKKTLNSLLRMAIQQKLALTQRLELLELDHE
notes: Construct described in Gibson et al, 2022; also called BicD2-CTD WT
